Substitutions are numbered along the chain they refer to.
T1: Claudin-2
T1 construct: expressed on transiently transfected HEK 293 cells; the sheet prints only the number after Claudin-1
T1 sequence (P57739 whole entry, species assumed, looked up): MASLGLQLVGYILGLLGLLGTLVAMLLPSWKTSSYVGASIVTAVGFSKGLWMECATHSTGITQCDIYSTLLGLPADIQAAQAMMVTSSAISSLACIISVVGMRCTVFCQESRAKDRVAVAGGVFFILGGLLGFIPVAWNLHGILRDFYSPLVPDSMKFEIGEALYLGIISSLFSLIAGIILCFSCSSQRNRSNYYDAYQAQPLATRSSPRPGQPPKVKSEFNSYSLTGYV

T2: Claudin-5
T2 construct: expressed on transiently transfected HEK 293 cells; the sheet prints only the number after Claudin-1
T2 sequence (O00501 whole entry, species assumed, looked up): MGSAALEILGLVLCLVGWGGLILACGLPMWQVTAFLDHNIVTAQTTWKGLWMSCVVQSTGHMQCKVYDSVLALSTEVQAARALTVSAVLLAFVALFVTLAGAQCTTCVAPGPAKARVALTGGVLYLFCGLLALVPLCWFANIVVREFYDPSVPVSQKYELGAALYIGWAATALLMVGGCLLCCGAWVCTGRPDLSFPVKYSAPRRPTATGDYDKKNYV

T3: Claudin-10
T3 construct: expressed on transiently transfected HEK 293 cells; the sheet prints only the number after Claudin-1
T3 sequence (P78369 1-228, species assumed, looked up): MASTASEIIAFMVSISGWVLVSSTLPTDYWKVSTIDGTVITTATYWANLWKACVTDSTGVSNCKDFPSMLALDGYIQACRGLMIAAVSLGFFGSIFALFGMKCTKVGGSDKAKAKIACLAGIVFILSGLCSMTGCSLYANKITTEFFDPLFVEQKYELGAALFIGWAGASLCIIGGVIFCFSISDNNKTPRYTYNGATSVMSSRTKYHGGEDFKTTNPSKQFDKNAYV

T4: Claudin-11
T4 construct: expressed on transiently transfected HEK 293 cells; the sheet prints only the number after Claudin-1
T4 sequence (O75508 whole entry, species assumed, looked up): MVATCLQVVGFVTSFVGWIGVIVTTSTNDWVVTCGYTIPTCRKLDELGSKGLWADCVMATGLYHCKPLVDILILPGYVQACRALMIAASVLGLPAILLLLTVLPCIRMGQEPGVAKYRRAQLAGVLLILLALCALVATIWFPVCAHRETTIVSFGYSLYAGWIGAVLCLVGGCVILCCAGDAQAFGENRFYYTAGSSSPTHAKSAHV

T5: Claudin-16
T5 construct: expressed on transiently transfected HEK 293 cells; the sheet prints only the number after Claudin-1
T5 sequence (Q9Y5I7 1-235, species assumed, looked up): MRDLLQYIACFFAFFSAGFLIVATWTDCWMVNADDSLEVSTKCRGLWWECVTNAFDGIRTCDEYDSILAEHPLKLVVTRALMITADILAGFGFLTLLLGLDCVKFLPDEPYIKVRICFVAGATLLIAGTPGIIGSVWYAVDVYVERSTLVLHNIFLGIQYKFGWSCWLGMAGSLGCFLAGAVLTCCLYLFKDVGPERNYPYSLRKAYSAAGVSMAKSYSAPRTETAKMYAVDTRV

T6: Claudin-17
T6 construct: expressed on transiently transfected HEK 293 cells; the sheet prints only the number after Claudin-1
T6 sequence (P56750 whole entry, species assumed, looked up): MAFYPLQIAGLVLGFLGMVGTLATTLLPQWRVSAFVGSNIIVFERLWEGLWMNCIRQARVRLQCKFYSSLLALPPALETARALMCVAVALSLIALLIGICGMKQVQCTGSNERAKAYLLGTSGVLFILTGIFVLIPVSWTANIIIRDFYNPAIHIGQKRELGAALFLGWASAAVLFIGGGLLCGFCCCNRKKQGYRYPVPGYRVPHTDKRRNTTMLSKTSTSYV

T7: Claudin-19
T7 construct: expressed on transiently transfected HEK 293 cells; the sheet prints only the number after Claudin-1
T7 sequence (Q8N6F1 whole entry, species assumed, looked up): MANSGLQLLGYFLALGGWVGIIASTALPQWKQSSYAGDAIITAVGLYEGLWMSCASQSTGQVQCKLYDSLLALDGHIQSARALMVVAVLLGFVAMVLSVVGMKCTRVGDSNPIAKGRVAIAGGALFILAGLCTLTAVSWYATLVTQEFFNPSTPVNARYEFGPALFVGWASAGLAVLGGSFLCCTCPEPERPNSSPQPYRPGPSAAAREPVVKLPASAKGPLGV

T8: Claudin-23
T8 construct: expressed on transiently transfected HEK 293 cells; the sheet prints only the number after Claudin-1
T8 sequence (Q96B33 1-292, species assumed, looked up): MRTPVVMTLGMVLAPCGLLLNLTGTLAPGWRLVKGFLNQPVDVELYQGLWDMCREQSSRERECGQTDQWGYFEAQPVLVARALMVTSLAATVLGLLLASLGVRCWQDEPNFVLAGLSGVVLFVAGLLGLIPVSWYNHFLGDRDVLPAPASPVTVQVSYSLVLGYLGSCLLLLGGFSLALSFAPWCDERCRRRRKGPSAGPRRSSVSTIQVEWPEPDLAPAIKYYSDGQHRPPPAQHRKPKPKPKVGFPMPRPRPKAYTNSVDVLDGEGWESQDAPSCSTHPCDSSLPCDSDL

T9: CLDN 7 expressed on HEK 293 cells (UniProt O95471 1-211, limits assumed)
T9 construct: whole, on cells
T9 sequence (looked up): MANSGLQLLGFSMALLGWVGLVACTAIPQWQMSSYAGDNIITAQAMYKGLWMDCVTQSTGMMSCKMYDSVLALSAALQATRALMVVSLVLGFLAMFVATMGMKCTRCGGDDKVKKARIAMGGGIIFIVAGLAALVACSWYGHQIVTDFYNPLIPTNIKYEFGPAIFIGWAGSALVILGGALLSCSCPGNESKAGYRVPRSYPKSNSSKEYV

B1: 79C4 (mouse hybridoma subclone antibody) (antibody, V domains shown)
VH: EVKLEESGGGLVQPGGSMKLSCVASGFTFSNYWMNWVRQSPEKGLEWVAEIRLKSKNYATHYAESVKGRFTISRDDSIGSVYLQMNNLRAEDTGIYYCARGHYGTNYGDYWGQGTSVTVSS
VL: DIQTTQSPSSLSASLGERVTLTCRASQEISGYLSWLQQKPDGTIKRLIYAASTLDSGVPKRFSGSRSGSDYSLTINSLESEDFVDYYCLQYDSSPWTFGGGTKLEIK
notes: also remade as chimeric antibody with human IgG1 and kappa (pFUSE vectors)
B2: 85H12 (mouse hybridoma subclone antibody) (antibody, V domains shown)
VH: B1 VH
VL: DIVMTQSPSSLTVTAGEKVTVSCKSSQSLFNSGNQKHYLTWYQQKPGQPPKLLIYRASTRESGVPDRFTGSGSGTDFTLTIRNVQAEDLAVYYCQNDYSFPLTFGAGTKLELK
notes: also remade as chimeric antibody with human IgG1 and kappa
B3: ASK589-B (antibody, human IgG1, kappa, V domains shown)
VH: EVQLVESGGGLVKPGGSLRLSCAVSGFYFNRGYWICWVRQAPGKGLEWIGCIDTGSGVPYYANWAKGRFTISRHTSKTTLTLQMNSLRAEDTASYFCARNSDSIYFNIWGPGTLVTVSS
VL: DIVMTQSPSSLSASVGDRVTITCQASQSIGGYISWYQQKPGKAPKLLIYKASTLASGVPSRFSGSGSGTDFTLTISSLQPEDFATYYCQNYAGVSIYGAVFGGGTKVVIKR
notes: Humanized rabbit antibody (from Clone 46; HC5M1 with LC1M1); also called Molecule B
B4: M5 (mutated version of M1) (antibody, V domains shown)
VH: QVQLVQSGAEVKKPGASVKVSCKASGYTFTSYVINWVRQATGQGLEWIGEIHPRGGNTYYSEKFRGRVTLTADTSISTAYMELSSLRSEDTAVYYCARLRRGNAMDYWDQGTTVTVSS
VL: DIVMTQSPSSLAVSLGEMATINCKSSQSLLNSGNQRNYLTWYQQKPGQPPKLLIYWASTRESGVPDRFSGSGSGTDFTLTISSLQAEDVAVYYCQNSYNYPYTFGQGTKLERK
notes: Humanized mouse antibody from 11E12 (hu11E12VHv1B with hu11E12VLv1); also called ASK-M5_DS; Molecule M5
B5: ASK589-M1 (antibody, V domains shown)
VH: B4 VH with R98I
VL: B4 VL
notes: Humanized mouse antibody from 11E12 (hu11E12VHv1 with hu11E12VLv1); also called Molecule M1; M1_DS
B6: 83G3 (mouse hybridoma subclone antibody) (antibody, V domains shown)
VH: QVQLQQSGAELAKPGASVKLSCKASGFTFTSYWIHWVKQRPGQGLEWIGYIDPSNTYTKFNQKFKDKATLTADKSSSTAYMQLNSLTFEDSAVYYCATGRGFAYWGQGTLVTVSS
VL: B2 VL
notes: as for B2

What was measured:
[1] = target: T10, human Claudin 18.2 (CLDN18.2) expressed on cells (human, UniProt P56856-2 1-261); assay: FACS, hybridoma subclone supernatant, CLDN18.2 and CLDN18.1 cells in one plot
T10 construct: whole, on cells; also called CLD18.2; CLD18A2

Claudin-1 = target: T11, Claudin-1; assay: FACS, transfected HEK 293 cells
T11 construct: expressed on transiently transfected HEK 293 cells

Claudin-2 = target: T1, Claudin-2; assay: FACS, transfected HEK 293 cells
Claudin-3 = target: T12, Claudin-3; assay: FACS, transfected HEK 293 cells
T12 construct: expressed on transiently transfected HEK 293 cells; the sheet prints only the number after Claudin-1

Claudin-4 = target: T13, Claudin-4; assay: FACS, transfected HEK 293 cells
T13 construct: expressed on transiently transfected HEK 293 cells; the sheet prints only the number after Claudin-1

Claudin-5 = target: T2, Claudin-5; assay: FACS, transfected HEK 293 cells
Claudin-8 = target: T14, Claudin-8; assay: FACS, transfected HEK 293 cells
T14 construct: expressed on transiently transfected HEK 293 cells; the sheet prints only the number after Claudin-1

Claudin-9 = target: T15, Claudin-9; assay: FACS, transfected HEK 293 cells
T15 construct: expressed on transiently transfected HEK 293 cells; the sheet prints only the number after Claudin-1

Claudin-10 = target: T3, Claudin-10; assay: FACS, transfected HEK 293 cells
Claudin-11 = target: T4, Claudin-11; assay: FACS, transfected HEK 293 cells
Claudin-12 = target: T16, Claudin-12; assay: FACS, transfected HEK 293 cells
T16 construct: expressed on transiently transfected HEK 293 cells; the sheet prints only the number after Claudin-1

Claudin-14 = target: T17, Claudin-14; assay: FACS, transfected HEK 293 cells
T17 construct: expressed on transiently transfected HEK 293 cells; the sheet prints only the number after Claudin-1

Claudin-16 = target: T5, Claudin-16; assay: FACS, transfected HEK 293 cells
Claudin-17 = target: T6, Claudin-17; assay: FACS, transfected HEK 293 cells
Claudin-19 = target: T7, Claudin-19; assay: FACS, transfected HEK 293 cells
Claudin-22 = target: T18, Claudin-22; assay: FACS, transfected HEK 293 cells
T18 construct: expressed on transiently transfected HEK 293 cells; the sheet prints only the number after Claudin-1

Claudin-23 = target: T8, Claudin-23; assay: FACS, transfected HEK 293 cells
Claudin-34 = target: T19, Claudin-34; assay: FACS, transfected HEK 293 cells
T19 construct: expressed on transiently transfected HEK 293 cells; the sheet prints only the number after Claudin-1

[2] = target: T9, CLDN 7 expressed on HEK 293 cells; assay: FACS, transfected HEK 293 cells
[3] = target: T10, human Claudin 18.2 (CLDN18.2) expressed …; assay: FACS, HEK 293 cells expressing CLDN18.2
[4] = target: T10, human Claudin 18.2 (CLDN18.2) expressed …; assay: FACS, transfected HEK 293 cells, first 18.2 column
[5] = target: T10, human Claudin 18.2 (CLDN18.2) expressed …; assay: FACS, transfected HEK 293 cells, second 18.2 column

Binder | binding result [1] | MFI (Claudin-1) | MFI (Claudin-2) | MFI (Claudin-3) | MFI (Claudin-4) | MFI (Claudin-5) | MFI (Claudin-8) | MFI (Claudin-9) | MFI (Claudin-10) | MFI (Claudin-11) | MFI (Claudin-12) | MFI (Claudin-14) | MFI (Claudin-16) | MFI (Claudin-17) | MFI (Claudin-19) | MFI (Claudin-22) | MFI (Claudin-23) | MFI (Claudin-34) | MFI [2] | MFI [4] | also measured
B1 | binds |  |  |  |  |  |  |  |  |  |  |  |  |  |  |  |  |  |  |  | 
B2 | binds |  |  |  |  |  |  |  |  |  |  |  |  |  |  |  |  |  |  |  | 
B3 |  | 22.8 | 21.3 | 23.8 | 22 | 20.3 | 21.4 | 21.8 | 23 | 20.9 | 20.7 | 21.7 | 24.5 | 21.8 | 21 | 29.1 | 22 | 22.3 | 22.6 | 3870 | binding result [2]: no binding; EC50 (read off the curve) [3]: ~0.3 µg/mL; MFI [5]: 4050
B4 |  | 23.6 | 22 | 23.3 | 21.8 | 21.2 | 20.8 | 21.7 | 22.3 | 20.3 | 21.6 | 22.4 | 21.8 | 21.9 | 21.3 | 22.2 | 21.7 | 24.1 | 23.4 | 3610 | EC50 (read off the curve) [3]: ~0.3 µg/mL; MFI [5]: 2810
B5 |  | 23.4 | 22.3 | 21.4 | 20.7 | 20 | 20.4 | 20.5 | 23.2 | 19.4 | 21.9 | 20.1 | 21 | 21.7 | 20.5 | 21.1 | 19.3 | 20.7 | 21.5 | 4820 | MFI [5]: 4650
B6 | binds |  |  |  |  |  |  |  |  |  |  |  |  |  |  |  |  |  |  |  | 
